{"source": "paper PMC8406286", "about": "“A Recently Assembled Degradation Pathway for 2,3-Dichloronitrobenzene in Diaphorobacter sp. Strain JS3051” (mBio, 2021)", "proteins": {"B1": {"name": "H6-DccA (Diaphorobacter sp. JS3051) (protein)", "chain": "MDKRVAEVAGAIVEAVRKILLDKRVTEAEYRAGVDYLTEVAQTRETAVLLDAFLNSTIIEGKAQRSRTSAPGMQGPYFLEGAPVVEGVLKTYDTDDHKPLIIRGTVRSDTGELLAGAVIDVWHSTPDGLYSGIHDNIPMDYYRGKLVTDSQGNFRVRTTMPVPYQIPYEGPTGRLLGHLGSHTWRPAHVHFKVRKDGFEPLTTQYYFEGGKWVDDDCCHGVTPDLITPETIEDGVRVMTLDFVIEREQAEQRKSATETVA", "notes": "full-length gene in pET-28a(+) (NdeI/BamHI), N-terminal 6xHis tag, purified from E. coli BL21(DE3)"}}, "conditions_in_all_cases": "50 mM Tris-HCl pH 8.0, 25°C", "key": {"[1]": {"substrate": "Oc1ccccc1O", "assay": "spectrophotometric ring-cleavage assay, A260", "assay_type": "biochemical, Diaphorobacter sp. JS3051"}, "[2]": {"substrate": "Cc1ccc(O)c(O)c1", "assay": "spectrophotometric ring-cleavage assay, A260", "assay_type": "biochemical, Diaphorobacter sp. JS3051"}, "[3]": {"substrate": "Cc1cccc(O)c1O", "assay": "spectrophotometric ring-cleavage assay, A260", "assay_type": "biochemical, Diaphorobacter sp. JS3051"}, "[4]": {"substrate": "Oc1cccc(Cl)c1O", "assay": "purified protein"}, "[5]": {"substrate": "Oc1ccc(Cl)cc1O", "assay": "purified protein"}, "[6]": {"substrate": "Oc1ccc(Cl)c(Cl)c1O", "assay": "purified protein"}}, "data": [{"protein": "B1", "values": [{"measurement": "Km", "setting": "[1]", "value": "9.06 ± 0.88", "unit": "µM"}, {"measurement": "Vmax", "setting": "[1]", "value": 0.44, "unit": "µM/min"}, {"measurement": "kcat", "setting": "[1]", "value": 0.363, "unit": "s⁻¹"}, {"measurement": "kcat/Km", "setting": "[1]", "value": 40000, "unit": "M⁻¹ s⁻¹"}, {"measurement": "Km", "setting": "[2]", "value": "10.40 ± 1.35", "unit": "µM"}, {"measurement": "Vmax", "setting": "[2]", "value": 4.63, "unit": "µM/min"}, {"measurement": "kcat", "setting": "[2]", "value": 3.86, "unit": "s⁻¹"}, {"measurement": "kcat/Km", "setting": "[2]", "value": 372000, "unit": "M⁻¹ s⁻¹"}, {"measurement": "Km", "setting": "[3]", "value": "12.85 ± 1.52", "unit": "µM"}, {"measurement": "Vmax", "setting": "[3]", "value": 0.63, "unit": "µM/min"}, {"measurement": "kcat", "setting": "[3]", "value": 0.525, "unit": "s⁻¹"}, {"measurement": "kcat/Km", "setting": "[3]", "value": 41700, "unit": "M⁻¹ s⁻¹"}, {"measurement": "Km", "setting": "[4]", "value": "2.58 ± 0.38", "unit": "µM"}, {"measurement": "Vmax", "setting": "[4]", "value": 0.42, "unit": "µM/min"}, {"measurement": "kcat", "setting": "[4]", "value": 0.35, "unit": "s⁻¹"}, {"measurement": "kcat/Km", "setting": "[4]", "value": 135000, "unit": "M⁻¹ s⁻¹"}, {"measurement": "Km", "setting": "[5]", "value": "0.73 ± 0.06", "unit": "µM"}, {"measurement": "Vmax", "setting": "[5]", "value": 0.78, "unit": "µM/min"}, {"measurement": "kcat", "setting": "[5]", "value": 0.653, "unit": "s⁻¹"}, {"measurement": "kcat/Km", "setting": "[5]", "value": 893000, "unit": "M⁻¹ s⁻¹"}, {"measurement": "Km", "setting": "[6]", "value": "0.48 ± 0.10", "unit": "µM"}, {"measurement": "Vmax", "setting": "[6]", "value": 0.43, "unit": "µM/min"}, {"measurement": "kcat", "setting": "[6]", "value": 0.355, "unit": "s⁻¹"}, {"measurement": "kcat/Km", "setting": "[6]", "value": 737000, "unit": "M⁻¹ s⁻¹"}]}]}
